A word on the Kd: it is the free concentration of one partner at which half of the binding sites on the other are occupied at equilibrium, for simple one-to-one binding. A lower Kd goes with tighter binding.

In the Immune Epitope Database (IEDB) one finds Kd data, which are given here for eight sequences.

Experiment [1] has as its target HLA-A*02:01. The experiment in a line: IEDB peptide-MHC binding, purified MHC/direct/fluorescence; filed as Kd, often an IC50 or EC50 that approximates it; ≥ and ≤ were set here for values at or beyond the usual limits of such assays.
Experiment [2] concerns the target HLA-A*02:12. The experiment is described as above.
Experiment [3] concerns the target HLA-B*27:03. The experiment is described as above.
Experiment [4] addresses HLA-B*46:01. The description is as above.
Experiment [5] addresses HLA-B*57:01. Described as above.
Experiment [6] concerns the target HLA-B*18:01. The experiment is described as above.
In experiment [7] the target is HLA-A*26:01. Described as above.
Experiment [8] has as its target HLA-B*51:01. The experiment is described as above.
The target in experiment [9] is HLA-A*03:01. The description is as above.
For experiment [10], the target named is HLA-A*02:19. The description is as above.
In experiment [11] the target is HLA-A*02:03. Described as above.
Experiment [12] addresses HLA-B*39:01. Described as above.
Experiment [13] deals with HLA-A*02:16. The experiment is described as above.
Experiment [14] deals with HLA-A*69:01. The description is as above.
For experiment [15], the target named is HLA-B*15:01. The description is as above.
Experiment [16] concerns the target HLA-A*24:03. Described as above.
Experiment [17] has as its target HLA-C*14:02. Described as above. The note with it: source organism: Listeria monocytogenes EGD-e.
The target of experiment [18] is HLA-C*07:02. Described as above. The following applies: source organism: Listeria monocytogenes EGD-e.
Experiment [19] concerns the target HLA-C*15:02. The experiment is described as above. The note with it: source organism: Listeria monocytogenes EGD-e.
Experiment [20] concerns the target HLA-A*24:02. Put plainly: IEDB peptide-MHC binding, purified MHC/competitive/fluorescence; filed as Kd, often an IC50 or EC50 that approximates it; ≥ and ≤ were set here for values at or beyond the usual limits of such assays.
In experiment [21] the target is HLA-A*29:02. Put plainly: IEDB peptide-MHC binding, purified MHC/direct/fluorescence; filed as Kd, often an IC50 or EC50 that approximates it; ≥ and ≤ were set here for values at or beyond the usual limits of such assays. The note with it: source organism: Entamoeba histolytica HM-1:IMSS.
Experiment [22] deals with HLA-A*02:11. The experiment is described as above. The note with it: source organism: Entamoeba histolytica HM-1:IMSS.
The target of experiment [23] is HLA-B*15:17. The description is as above.
Experiment [24] has as its target HLA-A*01:01. Described as above.
Experiment [25] concerns the target HLA-A*31:01. The experiment is described as above.
Experiment [26] concerns the target HLA-A*26:02. The experiment is described as above. The note with it: source organism: Variola virus.
Experiment [27] concerns the target HLA-B*58:01. Described as above.
Experiment [28] has as its target HLA-A*11:01. Described as above.
Experiment [29] deals with HLA-A*68:02. Described as above. The following applies: source organism: Camelpox virus M-96.
Experiment [30] concerns the target HLA-B*08:02. Described as above.
Experiment [31] addresses HLA-A*26:03. The description is as above. The note with it: source organism: Variola virus.
The target of experiment [32] is HLA-B*08:01. The experiment in a line: IEDB peptide-MHC binding, purified MHC/competitive/fluorescence; filed as Kd, often an IC50 or EC50 that approximates it; ≥ and ≤ were set here for values at or beyond the usual limits of such assays. The note with it: source organism: Variola virus.
Experiment [33] addresses HLA-B*07:02. The description is as above. The note with it: source organism: Variola virus.
In experiment [34] the target is HLA-B*48:01. The experiment in a line: IEDB peptide-MHC binding, purified MHC/direct/fluorescence; filed as Kd, often an IC50 or EC50 that approximates it; ≥ and ≤ were set here for values at or beyond the usual limits of such assays. The following applies: source organism: Giardia lamblia ATCC 50803.
Experiment [35] deals with HLA-B*08:01. Described as above. The following applies: source organism: Giardia lamblia ATCC 50803.
The target in experiment [36] is HLA-B*27:05. Described as above. The following applies: source organism: Giardia lamblia ATCC 50803.
Experiment [37] has as its target HLA-B*40:01. Described as above. The following applies: source organism: Giardia lamblia ATCC 50803.
Experiment [38] deals with HLA-B*38:01. The description is as above. The following applies: source organism: Giardia lamblia ATCC 50803.
Experiment [39] concerns the target HLA-B*07:02. The experiment is described as above. The following applies: source organism: Giardia lamblia ATCC 50803.
Setting [40] is: source organism: Brucella suis 1330.
Where [41] appears, read: source organism: Listeria monocytogenes EGD-e.
The mark [42] stands for this setting: source organism: Entamoeba histolytica HM-1:IMSS.
The mark [43] stands for this setting: source organism: Camelpox virus M-96.
Where [44] appears, read: source organism: Giardia lamblia ATCC 50803.

Turning to DPPEPLVRI, the Kd in experiment [1] (setting [40]), in experiment [2] (setting [40]), in experiment [3] (setting [40]), in experiment [4] (setting [40]), in experiment [5] (setting [40]) and in [6] (setting [40]) was no less than 20 µM throughout. Further, the equilibrium dissociation constant (Kd) in [7] (setting [40]) was no less than 20 µM; in experiment [8] (setting [40]), 1.87 µM; in [9] (setting [40]) it was no less than 20 µM; in [10] (setting [40]) it was no less than 20 µM; in experiment [11] (setting [40]) it was no less than 20 µM; in experiment [12] (setting [40]), no less than 20 µM. Further, the Kd in experiment [13] (setting [40]), in [14] (setting [40]) and in experiment [15] (setting [40]) was no less than 20 µM each time.

On to RYPRSVLTF, for which the Kd was no more than 0.001 µM in experiment [16] (setting [41]); no more than 0.001 µM in [17]; 0.044 µM in experiment [18]; no less than 20 µM in [19]; no more than 0.0001 µM in experiment [20] (setting [41]).

With RYGPALSI, in [20] (source organism: Influenza A virus H3N2), the Kd is no more than 0.0001 µM.

In [20] (source organism: Influenza A virus (A/goose/Hong Kong/437-6/1999(H5N1))), LYKKLKREITF returned a Kd of 0.0051 µM.

As for DSFAKQPQW, the Kd in experiment [1] (setting [42]), in experiment [2] (setting [42]), in experiment [3] (setting [42]), in experiment [4] (setting [42]), in experiment [16] (setting [42]) and in [7] (setting [42]) was no less than 20 µM throughout. The Kd in [21], in [9] (setting [42]), in experiment [22], in experiment [10] (setting [42]), in experiment [11] (setting [42]) and in [12] (setting [42]) was no less than 20 µM throughout. The Kd was no less than 20 µM in experiment [13] (setting [42]), no less than 20 µM in experiment [14] (setting [42]), 0.204 µM in experiment [23] (setting [42]) and no less than 20 µM in experiment [15] (setting [42]).

Regarding IFLIITKVF, the Kd in [1] (setting [43]) is no less than 20 µM; in [24] (setting [43]), no less than 20 µM; in [25] (setting [43]), no less than 20 µM; in experiment [5] (setting [43]), no less than 20 µM; in experiment [16] (setting [43]), 1.1 µM; in experiment [6] (setting [43]), no less than 20 µM. The Kd in experiment [7] (source organism: Variola virus), in experiment [26], in experiment [27] (setting [43]), in experiment [28] (setting [43]), in experiment [14] (setting [43]) and in experiment [23] (setting [43]) was no less than 20 µM in each case. Besides, the Kd was no less than 20 µM in experiment [29]; no less than 20 µM in experiment [30] (source organism: Variola virus); no less than 20 µM in [15] (setting [43]); no less than 20 µM in experiment [31]; no less than 20 µM in experiment [32]; 3 µM in [33].

In the case of QPWTPVSSF, the Kd in [1] (setting [44]), in experiment [24] (setting [44]), in experiment [34], in [35], in experiment [36] and in experiment [25] (setting [44]) was no less than 20 µM each time. For the same sequence, the Kd in experiment [37] was no less than 20 µM; in experiment [4] (setting [44]) it was no less than 20 µM; in experiment [5] (setting [44]) it was no less than 20 µM; in experiment [6] (setting [44]) it was 2.44 µM; in experiment [38], no less than 20 µM; in experiment [7] (setting [44]) it was no less than 20 µM. The Kd is no less than 20 µM in experiment [8] (setting [44]); no less than 20 µM in experiment [9] (setting [44]); 19.1 µM in experiment [27] (setting [44]); no less than 20 µM in experiment [28] (setting [44]); no less than 20 µM in experiment [14] (setting [44]); 2.62 µM in experiment [23] (setting [44]). In addition, the Kd is 0.134 µM in [39], no less than 20 µM in experiment [30] (setting [44]) and no less than 20 µM in [15] (setting [44]).

In experiment [20] (source organism: Influenza A virus (A/X-31(H3N2))), SWFNSFLTHAL registered a dissociation constant (Kd) of 0.15 µM.
